± gives the standard deviation of the averaged measurements.
Assays:
Saccharomyces cerevisiae [1] = test: protein stability index of tFT-peptide fusion (C-terminal peptide) (PSI (0-1 scale)); higher = more stable (slower turnover); conditions: genetic background: wild type; temperature: 30 C
Saccharomyces cerevisiae [2] = test: as above
Method: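 MPS profiling in S. cerevisiae of the tFT-X12 degron library: putative degron peptides plus stable controls, 12 aa, fused to the C-terminus of a sfGFP-mCherry timer. Cells are FACS-sorted into 8 mCherry/sfGFP bins and deep-sequenced. PSI runs from 0 (unstable) to 1 (stable). Backgrounds are wild type, das1Δ and doa10Δ at 30 °C, and wild type, das1Δ, cdc34-1 and cdc53-1 at 37 °C; 2-3 technical replicates each.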

[3] = genetic background: cdc34-1, temperature: 37 C
[4] = genetic background: cdc53-1, temperature: 37 C
[5] = genetic background: das1 deletion, temperature: 30 C
[6] = genetic background: das1 deletion, temperature: 37 C
[7] = genetic background: doa10 deletion, temperature: 30 C
[8] = genetic background: wild type, temperature: 30 C
[9] = genetic background: wild type, temperature: 37 C
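Note: PSI is a weighted mean of sequencing reads over stability bins, variants kept only with over 10 reads, mCherry proximal and sfGFP distal, peptide attached via GGGS linker.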

PAPQAVRIFSLY
protein stability index (Saccharomyces cerevisiae [1]): 0.428 ± 0.046 | protein stability index (Saccharomyces cerevisiae [2]; [3]): 0.62 ± 0.089 | protein stability index (Saccharomyces cerevisiae [2]; [4]): 0.74 ± 0.026 | protein stability index (Saccharomyces cerevisiae [2]; [5]): 0.653 ± 0.044 | protein stability index (Saccharomyces cerevisiae [2]; [6]): 0.744 ± 0.026 | protein stability index (Saccharomyces cerevisiae [2]; [7]): 0.179 ± 0.01 | protein stability index (Saccharomyces cerevisiae [2]; [8]): 0.183 ± 0.022 | protein stability index (Saccharomyces cerevisiae [2]; [9]): 0.39 ± 0.019

PASYPPFIYLSI
protein stability index (Saccharomyces cerevisiae [1]): 0.434 ± 0.077 | protein stability index (Saccharomyces cerevisiae [2]; [3]): 0.306 ± 0.012 | protein stability index (Saccharomyces cerevisiae [2]; [4]): 0.288 ± 0.018 | protein stability index (Saccharomyces cerevisiae [2]; [5]): 0.419 ± 0.032 | protein stability index (Saccharomyces cerevisiae [2]; [6]): 0.496 ± 0.01 | protein stability index (Saccharomyces cerevisiae [2]; [7]): 0.654 ± 0.018 | protein stability index (Saccharomyces cerevisiae [2]; [8]): 0.418 ± 0.026 | protein stability index (Saccharomyces cerevisiae [2]; [9]): 0.4461 ± 0.00056

PCFACIAFVLFP
protein stability index (Saccharomyces cerevisiae [1]): 0.4827 ± 0.004 | protein stability index (Saccharomyces cerevisiae [2]; [3]): 0.451 ± 0.013 | protein stability index (Saccharomyces cerevisiae [2]; [4]): 0.413 ± 0.093 | protein stability index (Saccharomyces cerevisiae [2]; [5]): 0.356 ± 0.038 | protein stability index (Saccharomyces cerevisiae [2]; [6]): 0.509 ± 0.032 | protein stability index (Saccharomyces cerevisiae [2]; [7]): 0.334 ± 0.013 | protein stability index (Saccharomyces cerevisiae [2]; [8]): 0.343 ± 0.014 | protein stability index (Saccharomyces cerevisiae [2]; [9]): 0.4507 ± 0.0011

PLFLRPLSVPVL
protein stability index (Saccharomyces cerevisiae [1]): 0.425 ± 0.0092 | protein stability index (Saccharomyces cerevisiae [2]; [3]): 0.421 ± 0.0067 | protein stability index (Saccharomyces cerevisiae [2]; [4]): 0.441 ± 0.01 | protein stability index (Saccharomyces cerevisiae [2]; [5]): 0.333 ± 0.03 | protein stability index (Saccharomyces cerevisiae [2]; [6]): 0.457 ± 0.0058 | protein stability index (Saccharomyces cerevisiae [2]; [7]): 0.305 ± 0.0096 | protein stability index (Saccharomyces cerevisiae [2]; [8]): 0.328 ± 0.024 | protein stability index (Saccharomyces cerevisiae [2]; [9]): 0.4324 ± 0.0022

PLLPCRPILFLL
protein stability index (Saccharomyces cerevisiae [1]): 0.197 ± 0.043 | protein stability index (Saccharomyces cerevisiae [2]; [3]): 0.559 ± 0.072 | protein stability index (Saccharomyces cerevisiae [2]; [4]): 0.627 ± 0.027 | protein stability index (Saccharomyces cerevisiae [2]; [5]): 0.558 ± 0.028 | protein stability index (Saccharomyces cerevisiae [2]; [6]): 0.6615 ± 0.0026 | protein stability index (Saccharomyces cerevisiae [2]; [7]): 0.125 ± 0.0042 | protein stability index (Saccharomyces cerevisiae [2]; [8]): 0.117 ± 0.014 | protein stability index (Saccharomyces cerevisiae [2]; [9]): 0.182 ± 0.038

PLLPLPRFPLFA
protein stability index (Saccharomyces cerevisiae [1]): 0.41 ± 0.021 | protein stability index (Saccharomyces cerevisiae [2]; [3]): 0.547 ± 0.018 | protein stability index (Saccharomyces cerevisiae [2]; [4]): 0.558 ± 0.038 | protein stability index (Saccharomyces cerevisiae [2]; [5]): 0.411 ± 0.03 | protein stability index (Saccharomyces cerevisiae [2]; [6]): 0.595 ± 0.021 | protein stability index (Saccharomyces cerevisiae [2]; [7]): 0.332 ± 0.009 | protein stability index (Saccharomyces cerevisiae [2]; [8]): 0.367 ± 0.013 | protein stability index (Saccharomyces cerevisiae [2]; [9]): 0.529 ± 0.019

PLSDPLRVILIM
protein stability index (Saccharomyces cerevisiae [1]): 0.443 ± 0.063 | protein stability index (Saccharomyces cerevisiae [2]; [3]): 0.55 ± 0.016 | protein stability index (Saccharomyces cerevisiae [2]; [4]): 0.633 ± 0.06 | protein stability index (Saccharomyces cerevisiae [2]; [5]): 0.501 ± 0.0089 | protein stability index (Saccharomyces cerevisiae [2]; [6]): 0.627 ± 0.014 | protein stability index (Saccharomyces cerevisiae [2]; [7]): 0.188 ± 0.0023 | protein stability index (Saccharomyces cerevisiae [2]; [8]): 0.22 ± 0.023 | protein stability index (Saccharomyces cerevisiae [2]; [9]): 0.328 ± 0.017

PPPPTPRPLLPP
protein stability index (Saccharomyces cerevisiae [1]): 0.449 ± 0.029 | protein stability index (Saccharomyces cerevisiae [2]; [3]): 0.662 ± 0.011 | protein stability index (Saccharomyces cerevisiae [2]; [4]): 0.7253 ± 0.0031 | protein stability index (Saccharomyces cerevisiae [2]; [5]): 0.677 ± 0.034 | protein stability index (Saccharomyces cerevisiae [2]; [6]): 0.73 ± 0.021 | protein stability index (Saccharomyces cerevisiae [2]; [7]): 0.666 ± 0.039 | protein stability index (Saccharomyces cerevisiae [2]; [8]): 0.667 ± 0.011 | protein stability index (Saccharomyces cerevisiae [2]; [9]): 0.697 ± 0.012

PPPRLPLLSCSQ
protein stability index (Saccharomyces cerevisiae [1]): 0.408 ± 0.013 | protein stability index (Saccharomyces cerevisiae [2]; [3]): 0.661 ± 0.025 | protein stability index (Saccharomyces cerevisiae [2]; [4]): 0.679 ± 0.0094 | protein stability index (Saccharomyces cerevisiae [2]; [5]): 0.669 ± 0.016 | protein stability index (Saccharomyces cerevisiae [2]; [6]): 0.6752 ± 0.00072 | protein stability index (Saccharomyces cerevisiae [2]; [7]): 0.632 ± 0.024 | protein stability index (Saccharomyces cerevisiae [2]; [8]): 0.638 ± 0.034 | protein stability index (Saccharomyces cerevisiae [2]; [9]): 0.66 ± 0.022

PPPSRRLTLRLA
protein stability index (Saccharomyces cerevisiae [1]): 0.292 ± 0.041 | protein stability index (Saccharomyces cerevisiae [2]; [3]): 0.612 ± 0.035 | protein stability index (Saccharomyces cerevisiae [2]; [4]): 0.6993 ± 0.0065 | protein stability index (Saccharomyces cerevisiae [2]; [5]): 0.681 ± 0.02 | protein stability index (Saccharomyces cerevisiae [2]; [6]): 0.698 ± 0.009 | protein stability index (Saccharomyces cerevisiae [2]; [7]): 0.179 ± 0.017 | protein stability index (Saccharomyces cerevisiae [2]; [8]): 0.21 ± 0.02 | protein stability index (Saccharomyces cerevisiae [2]; [9]): 0.397 ± 0.015

PPWRPVALLLLA
protein stability index (Saccharomyces cerevisiae [1]): 0.156 ± 0.013 | protein stability index (Saccharomyces cerevisiae [2]; [3]): 0.206 ± 0.029 | protein stability index (Saccharomyces cerevisiae [2]; [4]): 0.259 ± 0.022 | protein stability index (Saccharomyces cerevisiae [2]; [5]): 0.247 ± 0.022 | protein stability index (Saccharomyces cerevisiae [2]; [6]): 0.384 ± 0.007 | protein stability index (Saccharomyces cerevisiae [2]; [7]): 0.0824 ± 0.02 | protein stability index (Saccharomyces cerevisiae [2]; [8]): 0.0841 ± 0.018 | protein stability index (Saccharomyces cerevisiae [2]; [9]): 0.117 ± 0.077

PRFCVYARFHNT
protein stability index (Saccharomyces cerevisiae [1]): 0.387 ± 0.022 | protein stability index (Saccharomyces cerevisiae [2]; [3]): 0.713 ± 0.016 | protein stability index (Saccharomyces cerevisiae [2]; [4]): 0.748 ± 0.01 | protein stability index (Saccharomyces cerevisiae [2]; [5]): 0.649 ± 0.036 | protein stability index (Saccharomyces cerevisiae [2]; [6]): 0.722 ± 0.054 | protein stability index (Saccharomyces cerevisiae [2]; [7]): 0.298 ± 0.023 | protein stability index (Saccharomyces cerevisiae [2]; [8]): 0.375 ± 0.033 | protein stability index (Saccharomyces cerevisiae [2]; [9]): 0.567 ± 0.02

PRFWFYLSYSVH
protein stability index (Saccharomyces cerevisiae [1]): 0.431 ± 0.032 | protein stability index (Saccharomyces cerevisiae [2]; [3]): 0.429 ± 0.044 | protein stability index (Saccharomyces cerevisiae [2]; [4]): 0.514 ± 0.012 | protein stability index (Saccharomyces cerevisiae [2]; [5]): 0.373 ± 0.044 | protein stability index (Saccharomyces cerevisiae [2]; [6]): 0.533 ± 0.015 | protein stability index (Saccharomyces cerevisiae [2]; [7]): 0.3014 ± 0.0016 | protein stability index (Saccharomyces cerevisiae [2]; [8]): 0.344 ± 0.02 | protein stability index (Saccharomyces cerevisiae [2]; [9]): 0.493 ± 0.01

PSPPPPLPPHPS
protein stability index (Saccharomyces cerevisiae [1]): 0.721 ± 0.025 | protein stability index (Saccharomyces cerevisiae [2]; [3]): 0.688 ± 0.039 | protein stability index (Saccharomyces cerevisiae [2]; [4]): 0.7321 ± 0.0069 | protein stability index (Saccharomyces cerevisiae [2]; [5]): 0.69 ± 0.031 | protein stability index (Saccharomyces cerevisiae [2]; [6]): 0.72 ± 0.01 | protein stability index (Saccharomyces cerevisiae [2]; [7]): 0.685 ± 0.019 | protein stability index (Saccharomyces cerevisiae [2]; [8]): 0.667 ± 0.013 | protein stability index (Saccharomyces cerevisiae [2]; [9]): 0.716 ± 0.032

PSPPPPRPASPS
protein stability index (Saccharomyces cerevisiae [1]): 0.439 ± 0.023 | protein stability index (Saccharomyces cerevisiae [2]; [3]): 0.7 ± 0.052 | protein stability index (Saccharomyces cerevisiae [2]; [4]): 0.7492 ± 0.0073 | protein stability index (Saccharomyces cerevisiae [2]; [5]): 0.651 ± 0.0084 | protein stability index (Saccharomyces cerevisiae [2]; [6]): 0.72829 ± 0.00037 | protein stability index (Saccharomyces cerevisiae [2]; [7]): 0.667 ± 0.048 | protein stability index (Saccharomyces cerevisiae [2]; [8]): 0.652 ± 0.015 | protein stability index (Saccharomyces cerevisiae [2]; [9]): 0.719 ± 0.0084

PSTLVITVVITK
protein stability index (Saccharomyces cerevisiae [1]): 0.37 ± 0.038 | protein stability index (Saccharomyces cerevisiae [2]; [3]): 0.247 ± 0.019 | protein stability index (Saccharomyces cerevisiae [2]; [4]): 0.29 ± 0.0099 | protein stability index (Saccharomyces cerevisiae [2]; [5]): 0.279 ± 0.029 | protein stability index (Saccharomyces cerevisiae [2]; [6]): 0.4255 ± 0.0021 | protein stability index (Saccharomyces cerevisiae [2]; [7]): 0.23 ± 0.023 | protein stability index (Saccharomyces cerevisiae [2]; [8]): 0.243 ± 0.03 | protein stability index (Saccharomyces cerevisiae [2]; [9]): 0.389 ± 0.02

PYHAPRPPFSLF
protein stability index (Saccharomyces cerevisiae [1]): 0.149 ± 0.0084 | protein stability index (Saccharomyces cerevisiae [2]; [3]): 0.511 ± 0.05 | protein stability index (Saccharomyces cerevisiae [2]; [4]): 0.68 ± 0.0087 | protein stability index (Saccharomyces cerevisiae [2]; [5]): 0.667 ± 0.021 | protein stability index (Saccharomyces cerevisiae [2]; [6]): 0.7543 ± 0.0025 | protein stability index (Saccharomyces cerevisiae [2]; [7]): 0.0708 ± 0.013 | protein stability index (Saccharomyces cerevisiae [2]; [8]): 0.0545 ± 0.017 | protein stability index (Saccharomyces cerevisiae [2]; [9]): 0.111 ± 0.04

QARQLEMYMVVF
protein stability index (Saccharomyces cerevisiae [1]): 0.432 ± 0.0045 | protein stability index (Saccharomyces cerevisiae [2]; [3]): 0.638 ± 0.066 | protein stability index (Saccharomyces cerevisiae [2]; [4]): 0.532 ± 0.12 | protein stability index (Saccharomyces cerevisiae [2]; [5]): 0.403 ± 0.041 | protein stability index (Saccharomyces cerevisiae [2]; [6]): 0.579 ± 0.02 | protein stability index (Saccharomyces cerevisiae [2]; [7]): 0.379 ± 0.015 | protein stability index (Saccharomyces cerevisiae [2]; [8]): 0.418 ± 0.013 | protein stability index (Saccharomyces cerevisiae [2]; [9]): 0.544 ± 0.0069

QCKHIVRKIKLH
protein stability index (Saccharomyces cerevisiae [1]): 0.186 ± 0.025 | protein stability index (Saccharomyces cerevisiae [2]; [3]): 0.426 ± 0.089 | protein stability index (Saccharomyces cerevisiae [2]; [4]): 0.61 ± 0.11 | protein stability index (Saccharomyces cerevisiae [2]; [5]): 0.617 ± 0.014 | protein stability index (Saccharomyces cerevisiae [2]; [6]): 0.737 ± 0.018 | protein stability index (Saccharomyces cerevisiae [2]; [7]): 0.117 ± 0.016 | protein stability index (Saccharomyces cerevisiae [2]; [8]): 0.0952 ± 0.034 | protein stability index (Saccharomyces cerevisiae [2]; [9]): 0.147 ± 0.014

From the supplement of paper PMC10724198
